For orientation: Km means the substrate concentration at which the rate is half of its maximum. What is called kcat is the number of substrate molecules converted per active site and unit of time at saturation. As usually defined, the kcat/Km is the turnover number divided by the Michaelis constant.

Where a chain is given by its changes, count along the chain named. Names and notes keep the numbering of the source.

The labels stand for the following.
B1: PsChO (Pimelobacter simplex; V115C) (protein)
chain: VLVIGTGYGGAVAALRLAQAGVQVEMIEMGMSWDTPGSDGKIFAKVTSPDKRAYWLRTKTKAPCSNFFGFPIDATIPKYTGILDAEEFAGITVYQGRGVGGGSLVNGGMAVTPKQSRFSSILPSVDAAEMYATYYPRANAGLGVGSIDPAWFETAECYKYARVGRKHAQRSGFAWTFVPDVYDWNYMKAEQAGTVTRSALDGQVMYGNDHGKKSLVQTYLAQALATGRVNVSTLHQVTAVAPRSGGGYTVSIDQLDTSGNVVGTKSVTAGKVFFAAGSVGTSKLLTKLKATGSLPALNNEIGKGWGDNGNVMCGRANHMWDPTGSLQSTIPCSGIDNWDAGGAFAEVAPLPTGIETYASLYLSITNTTRRAEFSWNAAANKVDLSWQTAWKQDSINMAKTIFDKINSKEGTIYRTDLFGAYKVWQDGLTYHPLGGAVLNKATDNYGRLHGYNGLYVIDGALIPGNTTVNPFVTITALAERNIDNILANDI
notes: wild-type gene in pET28a(+), E. coli BL21(DE3), His6-tagged, Ni-NTA purified; noncovalent FAD type; catalytic H431, E346, N469
B2: PsChO (Pimelobacter simplex) (protein)
chain: B1 chain with C64V
notes: as for B1
B3: PsChO (Pimelobacter simplex; F121V) (protein)
chain: B1 chain with C64V, F70V
notes: as for B1

Substrate in the first data set: [H][C@@]12CC=C3C[C@@H](O)CC[C@]3(C)[C@@]1([H])CC[C@@]1(C)[C@@]2([H])CC[C@]1([H])[C@H](C)CC[C@@H](CC)C(C)C
Put plainly: peroxidase-coupled 4-aminoantipyrine/phenol H2O2 assay, OD500. Type of data set: biochemical, Pimelobacter simplex. As to conditions: 25 mM phosphate pH 7.5, isopropanol and Triton X-100, temperature not stated for kinetics. The source says:
(§1) peroxidase-coupled 4-aminoantipyrine/phenol H2O2 assay, OD500 on PsChO
Turning to B1, the Km was found to be 220.76 ± 3.14 µM, the kcat turned out to be 13.2 ± 0.36 s⁻¹ and the kcat/Km came out at 60000 ± 700 M⁻¹ s⁻¹.
In the case of B2, the Michaelis constant (Km) came to 328.61 ± 3.60 µM, the kcat amounted to 9.86 ± 0.35 s⁻¹ and the kcat/Km was found to be 30000 ± 500 M⁻¹ s⁻¹.
In the same order, the values of B3 are 178.42 ± 1.61 µM, 16.1 ± 0.33 s⁻¹ and 90000 ± 800 M⁻¹ s⁻¹.

Substrate in the next data set: C[C@]12CC[C@H](O)CC1=CC[C@@H]1[C@@H]2CC[C@]2(C)C(=O)CC[C@@H]12
The data set is described as above. Type of data set: biochemical, Pimelobacter simplex. Conditions: 25 mM phosphate pH 7.5, isopropanol and Triton X-100, temperature not stated for kinetics.
Excerpt: as §1
Turning to B1, the Km stood at 318.81 ± 3.25 µM, the turnover number (kcat) worked out at 9.56 ± 0.34 s⁻¹ and the kcat/Km amounted to 30000 ± 500 M⁻¹ s⁻¹.
For B2, the Michaelis-Menten constant (Km) came to 341.21 ± 3.79 µM, the catalytic constant (kcat) turned out to be 6.82 ± 0.14 s⁻¹ and the kcat/Km was found to be 20000 ± 400 M⁻¹ s⁻¹.
In the case of B3, the Michaelis-Menten constant (Km) is 273.52 ± 2.13 µM, the kcat worked out at 13.7 ± 0.2 s⁻¹ and the kcat/Km worked out at 50000 ± 600 M⁻¹ s⁻¹.

Substrate in another data set: CC(C)CCC[C@@H](C)[C@H]1CC[C@H]2[C@@H]3CC=C4C[C@@H](O)CC[C@]4(C)[C@H]3CC[C@]12C
The description is as above. The format is biochemical, Pimelobacter simplex. Conditions: 25 mM phosphate pH 7.5, isopropanol and Triton X-100, temperature not stated for kinetics.
Excerpt: as §1
With B1, the Michaelis constant (Km) worked out at 178.31 ± 1.38 µM, the turnover number (kcat) turned out to be 23 ± 0.29 s⁻¹ and the kcat/Km was found to be 130000 ± 500 M⁻¹ s⁻¹.
The like results for B2 were, in that order, 204.85 ± 3.14 µM, 12.3 ± 0.32 s⁻¹ and 60000 ± 300 M⁻¹ s⁻¹.
In the same order, the values of B3 are 154.83 ± 3.31 µM, 15.5 ± 0.3 s⁻¹ and 100000 ± 400 M⁻¹ s⁻¹.

Substrate in a further data set: [H][C@@]12CC=C3C[C@@H](O)CC[C@]3(C)[C@@]1([H])CC[C@@]1(C)[C@@]2([H])CC[C@]1([H])C(C)=O
The description is as above. Type of data set: biochemical, Pimelobacter simplex. Conditions: 25 mM phosphate pH 7.5, isopropanol and Triton X-100, temperature not stated for kinetics.
Excerpt: as §1
On to B1, for which the Km is 228.42 ± 3.24 µM, the kcat came to 13.7 ± 0.31 s⁻¹ and the specificity constant (kcat/Km) worked out at 60000 ± 600 M⁻¹ s⁻¹.
For the protein B2, the Km is 294.55 ± 2.97 µM, the catalytic constant (kcat) came to 11.8 ± 0.34 s⁻¹ and the kcat/Km was found to be 40000 ± 500 M⁻¹ s⁻¹.
In the case of B3, the Km came to 190.61 ± 3.30 µM, the kcat stood at 15.2 ± 0.22 s⁻¹ and the specificity constant (kcat/Km) was found to be 80000 ± 400 M⁻¹ s⁻¹.

Substrate in another data set: CC[C@H](/C=C/[C@@H](C)[C@H]1CC[C@H]2[C@@H]3CC=C4C[C@@H](O)CC[C@]4(C)[C@H]3CC[C@]12C)C(C)C
Described as above. The format is biochemical, Pimelobacter simplex. As to conditions: 25 mM phosphate pH 7.5, isopropanol and Triton X-100, temperature not stated for kinetics.
Excerpt: as §1
B1: the Km was found to be 528.84 ± 3.59 µM, the kcat stood at 4.23 ± 0.19 s⁻¹ and the specificity constant (kcat/Km) is 8000 ± 200 M⁻¹ s⁻¹.
With B2, the Km turned out to be 789.61 ± 4.71 µM, the turnover number (kcat) was 1.58 ± 0.07 s⁻¹ and the catalytic efficiency (kcat/Km) was found to be 2000 ± 100 M⁻¹ s⁻¹.
Take B3: the Michaelis constant (Km) came out at 384.12 ± 3.84 µM, the kcat amounted to 7.68 ± 0.27 s⁻¹ and the kcat/Km came to 20000 ± 200 M⁻¹ s⁻¹.

Values taken from paper PMC5703901, “Rational design of cholesterol oxidase for efficient bioresolution of cholestane skeleton substrates” (Scientific Reports, 2017).
